Reference: US20180044433A1 (FONDAZIONE IRCCS INSTITUTO NAZIONALE DEI TUMORI, published 2018)

Experiments:
[1] = biological target: T1, JMJD6 peptide 38 (human); assay: ELISA on plated peptides (1 ug/well)
T1 construct: also called pool G
T1 peptide: KPGETVFVPGGWWH
Protocol: (§1) A peptide library was synthesized (Primm), consisting of 57 peptides with 14 amino acids each and whose sequences overlap for 7 amino acids. In order to assay the interaction with collagen, the peptides, were sown in a plate (1 ug/well) and incubated for the whole night at 4° C. […] The reaction was developed and read at 450 nm as indicated above. As control two unrelated peptides were used and the reactivity of the antibodies on the peptides in absence of collagen was evaluated.

[2] = biological target: T2, JMJD6 peptide 1 (human); assay: ELISA on plated peptides (1 ug/well)
T2 construct: also called pool A
T2 peptide: MNHKSKKRIREAKR
Protocol: as §1

[3] = biological target: T3, JMJD6 peptide 53 (human); assay: ELISA on plated peptides (1 ug/well)
T3 construct: also called pool I
T3 peptide: SEGDGTVHRRKKRR
Protocol: as §1

[4] = biological target: T4, JMJD6 peptide 13 (human); assay: ELISA on plated peptides (1 ug/well)
T4 construct: also called pool B
T4 peptide: WTLERLKRKYRNQK
Protocol: as §1

[5] = biological target: T5, JMJD6 peptide 29 (human); assay: ELISA on plated peptides (1 ug/well)
T5 construct: also called pool F
T5 peptide: NALVQGHKRWCLFP
Protocol: as §1

[6] = biological target: T6, JMJD6 peptide 25 (human); assay: ELISA on plated peptides (1 ug/well)
T6 construct: also called pool E
T6 peptide: RPPYRWFVMGPPRS
Protocol: as §1

[7] = biological target: T7, JMJD6 peptide 41 (human); assay: ELISA on plated peptides (1 ug/well)
T7 construct: also called pool G
T7 peptide: TIAITQNFASSTNF
Protocol: as §1

[8] = biological target: T8, JMJD6 peptide 20 (human); assay: ELISA on plated peptides (1 ug/well)
T8 construct: also called pool D
T8 peptide: DSSYGEHPKRRKLL
Protocol: as §1

[9] = biological target: T9, JMJD6 peptide 54 (human); assay: ELISA on plated peptides (1 ug/well)
T9 construct: also called pool I
T9 peptide: HRRKKRRTCSMVGN
Protocol: as §1

[10] = biological target: T10, JMJD6 peptide 43 (human); assay: ELISA on plated peptides (1 ug/well)
T10 construct: also called pool H
T10 peptide: PVVWHKTVRGRPKL
Protocol: as §1

[11] = biological target: T11, JMJD6 peptide 24 (human); assay: ELISA on plated peptides (1 ug/well)
T11 construct: also called pool E
T11 peptide: QYAGEKRRPPYRWF
Protocol: as §1

[12] = biological target: T12, JMJD6 peptide 44 (human); assay: ELISA on plated peptides (1 ug/well)
T12 construct: also called pool H
T12 peptide: VRGRPKLSRKWYRI
Protocol: as §1

[13] = biological target: T13, JMJD6 peptide 39 (human); assay: ELISA on plated peptides (1 ug/well)
T13 construct: also called pool G
T13 peptide: VPGGWWHVVLNLDT
Protocol: as §1

[14] = biological target: T14, JMJD6 peptide 14 (human); assay: ELISA on plated peptides (1 ug/well)
T14 construct: also called pool B
T14 peptide: RKYRNQKFKCGEDN
Protocol: as §1

[15] = biological target: T15, JMJD6 peptide 30 (human); assay: ELISA on plated peptides (1 ug/well)
T15 construct: also called pool F
T15 peptide: KRWCLFPTSTPREL
Protocol: as §1

[16] = biological target: T16, JMJD6 peptide 2 (human); assay: ELISA on plated peptides (1 ug/well)
T16 construct: also called pool A
T16 peptide: RIREAKRSARPELK
Protocol: as §1

[17] = biological target: T17, JMJD6 peptide 21 (human); assay: ELISA on plated peptides (1 ug/well)
T17 construct: also called pool D
T17 peptide: PKRRKLLEDYKVPK
Protocol: as §1

[18] = biological target: T18, JMJD6 peptide 45 (human); assay: ELISA on plated peptides (1 ug/well)
T18 construct: also called pool H
T18 peptide: SRKWYRILKQEHPE
Protocol: as §1

[19] = biological target: T19, JMJD6 peptide 40 (human); assay: ELISA on plated peptides (1 ug/well)
T19 construct: also called pool G
T19 peptide: VVLNLDTTIAITQN
Protocol: as §1

[20] = biological target: T20, JMJD6 peptide 17 (human); assay: ELISA on plated peptides (1 ug/well)
T20 construct: also called pool C
T20 peptide: KMKYYIEYMESTRD
Protocol: as §1

[21] = biological target: T21, JMJD6 peptide 16 (human); assay: ELISA on plated peptides (1 ug/well)
T21 construct: also called pool C
T21 peptide: DGYSVKMKMKYYIE
Protocol: as §1

[22] = biological target: T22, JMJD6 5′/FLAG (amino acids 1-305 with C-terminal FLAG) (human, UniProt Q6NYC1 1-305); assay: immunofluorescence on transfected MeWo cells
T22 construct: range 1-305; Expressed in transfected MeWo cells and tested by immunofluorescence; also called JM 5′/FLAG

binding result [1]: no binding
binding result [2]: no binding
binding result [3]: no binding
binding result [4]: no binding
binding result [5]: no binding
binding result [6]: no binding
binding result [7]: no binding
binding result [8]: no binding
binding result [9]: no binding
binding result [10]: no binding
binding result [11]: no binding
binding result [12]: no binding
binding result [13]: no binding
binding result [14]: no binding
binding result [15]: no binding
binding result [16]: no binding
binding result [17]: no binding
binding result [18]: no binding
binding result [19]: no binding
binding result [20]: no binding
binding result [21]: no binding
binding result [22]: no binding
B1: monoclonal antibody P4E11 (antibody, V domains shown, not shown: a dimerising Fc or GST)
VH: QVQLKQSGPGLVQPSQSLSITCTVSGFSLSSYGVHWVRQSPGKGLEWLGVIWRSGNTDYNAVFMSRLSITKDDSKSQVFFKMNSLQADDTAIYYCAKNFRYDVGSWFAYWGQGTLVTVSA
VL: NIMMTQSPSSLAVSAGEKVTMNCKSSQSILYSSNHKNYLAWYQQKPGQSPKLLIYWASTRESGVPNRFTGSGSGTDFTLTISSVQSEDLAVYYCHQYLSSYTFGGGTKLEIKR
